From patent US20090298769A1 (CLEVELAND CLINIC FOUNDATION, published 2009)

Biological target: T1, VEGFR-2 of human endothelial cells (HUVEC) (human, UniProt P35968 20-1356)
T1 construct: whole, on cells; Endogenous, detected in cell lysates or by staining; also called VEGF receptor-2
Assay: co-immunoprecipitation (anti-VEGFR-2 IP, anti-integrin β5 blot), HUVEC with or without VEGF

T1 sequence (P35968 20-1356): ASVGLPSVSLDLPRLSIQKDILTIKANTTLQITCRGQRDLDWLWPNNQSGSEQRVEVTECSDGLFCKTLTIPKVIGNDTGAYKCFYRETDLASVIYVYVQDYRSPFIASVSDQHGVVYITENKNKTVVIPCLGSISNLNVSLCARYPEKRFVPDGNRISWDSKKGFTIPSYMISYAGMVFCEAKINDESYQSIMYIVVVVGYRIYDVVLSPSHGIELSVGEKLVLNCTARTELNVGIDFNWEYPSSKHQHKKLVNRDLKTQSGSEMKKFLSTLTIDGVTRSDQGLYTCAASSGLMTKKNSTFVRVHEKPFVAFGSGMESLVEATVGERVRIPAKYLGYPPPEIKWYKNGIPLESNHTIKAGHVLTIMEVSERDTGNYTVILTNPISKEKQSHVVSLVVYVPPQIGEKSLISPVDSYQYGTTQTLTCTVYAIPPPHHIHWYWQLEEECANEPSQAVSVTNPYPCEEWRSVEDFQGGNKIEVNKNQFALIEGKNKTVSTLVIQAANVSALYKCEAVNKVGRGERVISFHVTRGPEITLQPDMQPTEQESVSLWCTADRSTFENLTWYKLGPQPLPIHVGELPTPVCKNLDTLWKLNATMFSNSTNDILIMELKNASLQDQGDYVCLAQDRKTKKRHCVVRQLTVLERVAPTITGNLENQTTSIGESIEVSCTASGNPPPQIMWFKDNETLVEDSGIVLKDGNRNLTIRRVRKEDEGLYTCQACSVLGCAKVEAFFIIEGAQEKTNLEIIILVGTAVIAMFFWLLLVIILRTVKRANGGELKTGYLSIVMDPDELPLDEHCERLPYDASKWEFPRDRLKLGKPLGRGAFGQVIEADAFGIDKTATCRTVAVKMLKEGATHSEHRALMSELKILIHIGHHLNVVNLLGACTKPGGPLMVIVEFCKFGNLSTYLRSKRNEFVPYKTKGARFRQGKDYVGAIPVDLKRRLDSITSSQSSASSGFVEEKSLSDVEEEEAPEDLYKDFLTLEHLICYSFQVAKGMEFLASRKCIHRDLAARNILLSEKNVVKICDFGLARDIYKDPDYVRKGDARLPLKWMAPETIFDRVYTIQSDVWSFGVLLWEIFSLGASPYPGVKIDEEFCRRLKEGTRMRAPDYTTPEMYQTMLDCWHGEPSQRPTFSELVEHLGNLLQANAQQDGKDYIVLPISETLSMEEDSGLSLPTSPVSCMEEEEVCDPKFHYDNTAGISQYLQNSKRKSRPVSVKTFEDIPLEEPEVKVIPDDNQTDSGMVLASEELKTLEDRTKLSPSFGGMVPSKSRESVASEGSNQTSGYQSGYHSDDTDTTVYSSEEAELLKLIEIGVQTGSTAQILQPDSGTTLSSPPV

binding result: no binding
B1: β5 integrin of HUVEC (receptor, human, UniProt P18084 24-799, looked up)
chain: GLNICTSGSATSCEECLLIHPKCAWCSKEDFGSPRSITSRCDLRANLVKNGCGGEIESPASSFHVLRSLPLSSKGSGSAGWDVIQMTPQEIAVNLRPGDKTTFQLQVRQVEDYPVDLYYLMDLSLSMKDDLDNIRSLGTKLAEEMRKLTSNFRLGFGSFVDKDISPFSYTAPRYQTNPCIGYKLFPNCVPSFGFRHLLPLTDRVDSFNEEVRKQRVSRNRDAPEGGFDAVLQAAVCKEKIGWRKDALHLLVFTTDDVPHIALDGKLGGLVQPHDGQCHLNEANEYTASNQMDYPSLALLGEKLAENNINLIFAVTKNHYMLYKNFTALIPGTTVEILDGDSKNIIQLIINAYNSIRSKVELSVWDQPEDLNLFFTATCQDGVSYPGQRKCEGLKIGDTASFEVSLEARSCPSRHTEHVFALRPVGFRDSLEVGVTYNCTCGCSVGLEPNSARCNGSGTYVCGLCECSPGYLGTRCECQDGENQSVYQNLCREAEGKPLCSGRGDCSCNQCSCFESEFGKIYGPFCECDNFSCARNKGVLCSGHGECHCGECKCHAGYIGDNCNCSTDISTCRGRDGQICSERGHCLCGQCQCTEPGAFGEMCEKCPTCPDACSTKRDCVECLLLHSGKPDNQTCHSLCRDEVITWVDTIVKDDQEAVLCFYKTAKDCVMMFTYVELPSGKSNLTVLREPECGNTPNAMTILLAVVGSILLVGLALLAIWKLLVTIHDRREFAKFQSERSRARYEMASNPLYRKPISTHTVDFTFNKFNKSYNGTVD
notes: whole, on cells; also called integrin β5
